According to patent publication US20070128672A1 (ST VINCENT S HOSPITAL SYDNEY, published 2007):
Numbering of substitutions follows the chain as printed. Where two headings read alike, the source gives them in different places.

T1: CEA (UniProt P06731 35-685)
T1 sequence (looked up): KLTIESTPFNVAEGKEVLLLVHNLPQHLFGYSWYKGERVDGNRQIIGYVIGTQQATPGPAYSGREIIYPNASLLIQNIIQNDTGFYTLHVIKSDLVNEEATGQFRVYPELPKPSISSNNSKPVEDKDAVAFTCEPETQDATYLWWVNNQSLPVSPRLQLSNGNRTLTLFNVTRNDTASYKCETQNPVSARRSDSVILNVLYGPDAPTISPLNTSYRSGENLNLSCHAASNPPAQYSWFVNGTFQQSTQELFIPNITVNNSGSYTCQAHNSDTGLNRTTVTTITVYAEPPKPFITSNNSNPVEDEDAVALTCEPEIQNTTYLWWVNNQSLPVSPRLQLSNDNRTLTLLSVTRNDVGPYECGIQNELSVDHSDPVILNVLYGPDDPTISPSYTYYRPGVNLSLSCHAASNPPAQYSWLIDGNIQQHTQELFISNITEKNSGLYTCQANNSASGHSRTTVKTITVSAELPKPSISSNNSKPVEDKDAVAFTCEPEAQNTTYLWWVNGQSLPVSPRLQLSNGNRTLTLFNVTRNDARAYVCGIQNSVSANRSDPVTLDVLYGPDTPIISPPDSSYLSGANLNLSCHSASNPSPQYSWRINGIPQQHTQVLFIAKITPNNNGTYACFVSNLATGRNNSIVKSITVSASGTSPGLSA

B1: Fab clone 1159.8 (Fab, V domains shown)
VH: VQLLESGGGLIQPGRSLRLSCTASGFPFGDSAMTWFRQAPGKGLEWVGFIRSKAYGAATAYAASMKGRVTISRDDAKSIAYLHMSRLKIEDTAVYFCSRVKAGGPDYWGQGTLVTVSS
VL: AAELTQSPLSLPVIPGEPASISCRSSQSLLHRNGYNYLDWYLQKPGQSPQLLIYLGSTRASGVPDRFSGSGSGTDFTLNIRRVEAEDVGVYYCMQGLQTPYTFGEGTKVEIK
notes: Soluble Fab selected by panning on the p53 central domain; detected through the myc tag (9E10)
B2: Fab clone 163.1 (Fab, V domains shown)
VH: VQLLEQSGAEMKRPGASVTISCQASRQTFSGQYIHWVRQAPGQGLEWMGVINPSGGSANYAPSFQGRLSMSRDASTNTVYMKLSSLTSEDTAVYYCLSQALKYWGQGTLVAVSS
VL: AAELTQSPDSLAVSLGERATINCKSNQSVLYNSNSKNYLAWYQQKPGQPPKLLIYWASTRESGVPDRFSGSGSGTDFTLTITSLQAEDVAVYYCQQYFSSPYTFGQGTKLEIK
notes: myc tag on the C terminus of the heavy chain
B3: Fab clone 163.5 (Fab, V domains shown)
VH: VQLLEQSGAEVKRPGASVTISCQASRQDFSGQYIHWVRQAPGQGFEWMGIINPSGGSANYAPKFKGRLTMSRDSSTDTVYMTLTSLTSEDTAVYYCLLQALKHWGQGTLVAVSS
VL: AAELTQSPDSLAVALGERATINCKSSQSVLYSLNNKNYLAWYQQKPGQPPKLLIHWASTRESGVPDRFSGSGSETDFTLTISSLQAEDVAVYYCQQYYTTPYTFGQGTKLEIK
B4: Fab clone 163.17 (Fab, V domains shown)
VH: B3 VH with Q23R, D77E, A111G, V112P
VL: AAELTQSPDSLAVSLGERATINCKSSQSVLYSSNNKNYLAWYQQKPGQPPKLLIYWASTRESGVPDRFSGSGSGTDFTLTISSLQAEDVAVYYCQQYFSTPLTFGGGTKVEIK
notes: Human IgG1 kappa Fab (MCO1 vector, soluble from E. coli HB2151), myc tag on the C terminus of the heavy chain
B5: whole anti-p53 antibody from CHO clone C4B4 (antibody, V domains shown)
VH: B3 VH
VL: B3 VL
notes: also called C4B4G4
B6: Fab clone 163.24 (Fab, V domains shown)
VH: B3 VH with D28N, F45L, K63R, T69S, V79A, M81L, Y95F, A100S
VL: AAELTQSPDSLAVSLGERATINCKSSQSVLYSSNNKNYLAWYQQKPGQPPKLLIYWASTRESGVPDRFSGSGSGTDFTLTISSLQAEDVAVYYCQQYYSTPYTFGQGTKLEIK
notes: as for B4

Legend:
[1] = molecular target: T2, recombinant p53 (wild type, whole protein) (UniProt P04637 1-393, limits assumed); experiment: ELISA, soluble Fab, detected with 9E10 and AP goat anti-mouse
T2 construct: mature; Also tested unpurified in bacterial lysates; also called whole p53; full length p53
T2 sequence (P04637 whole entry): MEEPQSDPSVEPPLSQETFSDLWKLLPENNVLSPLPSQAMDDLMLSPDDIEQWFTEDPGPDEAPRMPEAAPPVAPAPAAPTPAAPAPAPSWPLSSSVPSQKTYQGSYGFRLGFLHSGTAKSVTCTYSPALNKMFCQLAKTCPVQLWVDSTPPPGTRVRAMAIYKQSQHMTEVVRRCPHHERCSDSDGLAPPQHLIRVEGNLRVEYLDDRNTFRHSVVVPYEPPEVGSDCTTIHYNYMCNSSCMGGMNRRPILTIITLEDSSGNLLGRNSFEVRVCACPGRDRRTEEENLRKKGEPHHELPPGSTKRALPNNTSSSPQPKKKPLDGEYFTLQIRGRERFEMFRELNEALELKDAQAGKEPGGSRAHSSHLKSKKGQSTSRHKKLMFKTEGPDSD

[2] = molecular target: T3, p53 central domain (residues 95-298) (UniProt P04637 95-298); experiment: as above
T3 construct: range 95-298; Carries the vector's tag (purified as whole p53 on Ni2+ resin); also called central domain of p53
T3 sequence (P04637 95-298 limits assumed): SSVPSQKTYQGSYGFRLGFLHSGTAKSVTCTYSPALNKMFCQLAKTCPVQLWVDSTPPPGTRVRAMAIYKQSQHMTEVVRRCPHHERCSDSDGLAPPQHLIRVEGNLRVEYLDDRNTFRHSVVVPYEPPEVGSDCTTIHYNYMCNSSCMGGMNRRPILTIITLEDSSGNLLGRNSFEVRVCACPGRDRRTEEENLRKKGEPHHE

bovine serum albumin [3] = molecular target: T4, bovine serum albumin (bovine, UniProt P02769 25-607); experiment: cross reactivity ELISA, Fab detected with 9E10 and AP goat anti-mouse
T4 construct: also called BSA
T4 sequence (P02769 25-607 limits assumed): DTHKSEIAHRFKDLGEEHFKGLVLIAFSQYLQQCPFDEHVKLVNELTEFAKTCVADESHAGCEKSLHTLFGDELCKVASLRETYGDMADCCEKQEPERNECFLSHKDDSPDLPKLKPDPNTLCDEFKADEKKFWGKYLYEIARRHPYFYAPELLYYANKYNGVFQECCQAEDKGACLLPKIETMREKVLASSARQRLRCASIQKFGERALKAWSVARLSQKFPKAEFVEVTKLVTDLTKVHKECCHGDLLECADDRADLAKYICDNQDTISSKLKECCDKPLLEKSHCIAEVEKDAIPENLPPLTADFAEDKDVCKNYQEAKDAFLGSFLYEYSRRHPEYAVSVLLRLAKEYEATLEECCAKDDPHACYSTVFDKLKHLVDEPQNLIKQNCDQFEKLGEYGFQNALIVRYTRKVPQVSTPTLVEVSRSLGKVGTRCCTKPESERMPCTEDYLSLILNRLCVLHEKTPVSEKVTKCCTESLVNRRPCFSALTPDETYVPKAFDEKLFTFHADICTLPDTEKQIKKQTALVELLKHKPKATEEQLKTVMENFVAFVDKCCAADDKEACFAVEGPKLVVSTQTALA

CEA = molecular target: T1, CEA; experiment: ELISA, crude Fab supernatant, detected with 9E10
[4] = molecular target: T5, ErbB2 extracellular domain (UniProt P04626 23-652, limits assumed); experiment: ELISA, crude Fab supernatant, detected with 9E10
T5 construct: extracellular domain

bovine serum albumin [5] = molecular target: T4, bovine serum albumin; experiment: ELISA, crude Fab supernatant, detected with 9E10
[6] = molecular target: T3, p53 central domain (residues 95-298); experiment: immunoblot of purified central domain, Fab bacterial supernatant
[7] = molecular target: T6, p53 deletion construct 18 (residues 44-393) (human, UniProt P04637 44-393); experiment: immunoblot of E. coli lysates, Fab detected with 9E10 and HRP goat anti-mouse
T6 construct: In E. coli lysate on an immunoblot; also called the 18 construct
T6 sequence (P04637 44-393 limits assumed, stated change not applied): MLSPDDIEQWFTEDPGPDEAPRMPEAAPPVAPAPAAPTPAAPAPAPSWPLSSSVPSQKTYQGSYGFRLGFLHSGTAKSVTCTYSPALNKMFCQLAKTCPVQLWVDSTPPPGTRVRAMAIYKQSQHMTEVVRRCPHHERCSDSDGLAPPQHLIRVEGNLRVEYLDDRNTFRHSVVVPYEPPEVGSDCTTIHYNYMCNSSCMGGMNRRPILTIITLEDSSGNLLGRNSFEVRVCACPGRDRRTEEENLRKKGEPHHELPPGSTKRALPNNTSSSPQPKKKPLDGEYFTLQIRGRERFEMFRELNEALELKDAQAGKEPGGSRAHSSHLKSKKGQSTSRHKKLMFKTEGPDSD

[8] = molecular target: T2, recombinant p53 (wild type, whole …); experiment: SPR (BIAcore), p53 amine-coupled to a CM5 chip, Fab 10-200 nM injected, global fit, 1:1 model with drifting baseline
[9] = molecular target: T2, recombinant p53 (wild type, whole …)
[10] = molecular target: T3, p53 central domain (residues 95-298); experiment: ELISA, detected with HRP goat anti-human
[11] = molecular target: T7, p53 carboxy terminal domain (residues 283-393) (UniProt P04637 283-393); experiment: ELISA, detected with HRP goat anti-human
T7 construct: Carries the vector's tag; also called C-terminal domain; carboxy terminal domain of the p53
T7 sequence (P04637 283-393 limits assumed): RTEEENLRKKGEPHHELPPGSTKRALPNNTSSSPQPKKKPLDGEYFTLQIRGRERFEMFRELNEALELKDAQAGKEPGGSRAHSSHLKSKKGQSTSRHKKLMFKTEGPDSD

bovine serum albumin [12] = molecular target: T4, bovine serum albumin; experiment: cross reactivity ELISA, purified antibody, HRP goat anti-human
hen egg white lysozyme = hen egg white lysozyme (hen, UniProt P00698 19-147); experiment: as above
Chain of hen egg white lysozyme (P00698 19-147): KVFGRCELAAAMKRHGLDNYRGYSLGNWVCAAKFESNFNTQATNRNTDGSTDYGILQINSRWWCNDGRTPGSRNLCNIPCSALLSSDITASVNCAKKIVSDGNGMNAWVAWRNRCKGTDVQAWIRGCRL

Row | Binder | binding result (CEA) | binding result [4] | binding result (bovine serum albumin [5]) | binding result [7] | Kd [8] [nM] | also measured
1 | B1 |  |  |  |  |  | binding result [1]: binds; binding result [2]: binds; binding result (bovine serum albumin [3]): no binding (tested: antigen coated at 1 µg/ml)
2 | B2 | no binding (tested: antigen coated at 5 µg/ml) | no binding (tested: antigen coated at 5 µg/ml) | no binding (tested: antigen coated at 1 µg/ml) | no binding | 11.9 | binding result [6]: no binding
3 | B3 | no binding (tested: antigen coated at 5 µg/ml) | no binding (tested: antigen coated at 5 µg/ml) | no binding (tested: antigen coated at 1 µg/ml) | no binding |  | Kd [9]: 15 nM
4 | B4 | no binding (tested: antigen coated at 5 µg/ml) | no binding (tested: antigen coated at 5 µg/ml) | no binding (tested: antigen coated at 1 µg/ml) | no binding | 15.7 | 
5 | B5 |  |  |  |  |  | binding result [10]: no binding (tested: antigen coated at 2 µg/ml); binding result [11]: no binding (tested: antigen coated at 2 µg/ml); binding result (bovine serum albumin [12]): no binding (tested: antigen coated at 20 µg/ml); binding result (hen egg white lysozyme): no binding (tested: antigen coated at 10 µg/ml)
6 | B6 | no binding (tested: antigen coated at 5 µg/ml) | no binding (tested: antigen coated at 5 µg/ml) | no binding (tested: antigen coated at 1 µg/ml) | no binding | 13.8 | 
